Experimental data taken from PMC6823300, “The molecular basis of monopolin recruitment to the kinetochore” (Chromosoma, 2019).

B1: S. pombe Csm1 C-terminal globular domain (residues 125–261), wild type [S. pombe] / Sp Mis13 5–17 peptide (Dsn1-N/Box 1), fluorescein isothiocyanate-labelled [modified: fluorescein isothiocyanate-labelled at its N-terminus; fluorescein … (parent complex)
chain 1: NAGADADDTIVKDLKKELENEKKANHSLKNELLKTREQIKNYSKINILIKELFGLEVADCIEDEDGYRFNCKNTGRRGTLEYQLLLDDQNFTFTPRLNVQTDEELMKHLPDYLLEEIIFTKEQGKLFSARLMKALQD
chain 2: PEEQEGFVFVRKG

Variants of: B1
Assay: fluorescence polarisation; point at 250 µM protein (highest concentration shown); parent: 140; read off a plot

Variant	response
chain 1 NAGADADDTIVKDLKKELENEKKANHSLKNELLKTREQIKNYSKINILIKELFGLEVADCIEDEDGYRFNCKNTGRRGTLEYQLLLDDQNFTFTPRLNVQTDEELMKHLPDYLLEEDIFTKEQGKLFSARLMKALQD	~73 mP
